According to publication PMC9249852, “Transcription factor paralogs orchestrate alternative gene regulatory networks by context-dependent cooperation with multiple cofactors”:

Tests used:
Conditions in all cases: protein: recombinant;recombinant; tags: N-terminal 6xHis (pQE30) and EGFP with TEV linker; C-terminal FLAG;N-terminal T7; C-terminal 6xHis; copies: 1;1; label: 5' biotin on strand 2 (SR1 primer); blunt
EGFP-Scr-FLAG;T7-Dll-His [1] = target: T1, EGFP-Scr-FLAG;T7-Dll-His (Drosophila melanogaster?;Drosophila …, UniProt P09077;P20009 1-417;1-327, |); assay: biotin-DNA pull-down, anti-FLAG western; Dll enhances Scr binding; Dll on DNA not probed; Pull-down in 1 ml: 500 ul protein in dialysis buffer (20 mM HEPES pH 8.0, 200 mM NaCl, 10% glycerol, 2 mM MgCl2, 0.05% Tween-20) + 500 ul probe mix with 200 ul
EGFP-Scr-FLAG;T7-Dll-His [2] = target: T1, EGFP-Scr-FLAG;T7-Dll-His; assay: biotin-DNA pull-down, anti-FLAG western; Dll increases Scr binding, concentration-dependent; Dll on DNA not probed; Pull-down in 1 ml: 500 ul protein in dialysis buffer (20 mM HEPES pH 8.0, 200 mM NaCl, 10% glycerol, 2 mM MgCl2, 0.05% Tween-20) + 500 ul probe mix with 200 ul
EGFP-Scr-FLAG;T7-Dll-His [3] = target: T1, EGFP-Scr-FLAG;T7-Dll-His; assay: biotin-DNA pull-down, anti-FLAG western; Dll assists Scr binding; Dll on DNA not probed; Pull-down in 1 ml: 500 ul protein in dialysis buffer (20 mM HEPES pH 8.0, 200 mM NaCl, 10% glycerol, 2 mM MgCl2, 0.05% Tween-20) + 500 ul probe mix with 200 ul

T1 sequence (P09077 whole entry, chain 1 of 2): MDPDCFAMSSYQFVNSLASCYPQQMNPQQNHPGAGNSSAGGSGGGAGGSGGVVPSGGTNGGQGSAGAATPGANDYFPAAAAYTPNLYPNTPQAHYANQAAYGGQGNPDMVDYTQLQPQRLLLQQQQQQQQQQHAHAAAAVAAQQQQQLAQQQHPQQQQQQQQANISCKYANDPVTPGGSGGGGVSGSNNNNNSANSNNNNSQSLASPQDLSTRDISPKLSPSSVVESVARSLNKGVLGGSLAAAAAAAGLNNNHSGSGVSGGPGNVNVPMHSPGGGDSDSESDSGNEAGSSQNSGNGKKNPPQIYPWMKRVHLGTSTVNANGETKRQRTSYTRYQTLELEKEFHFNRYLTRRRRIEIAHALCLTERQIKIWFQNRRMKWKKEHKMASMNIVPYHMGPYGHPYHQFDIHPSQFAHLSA
T1 sequence (P20009 whole entry, chain 2 of 2): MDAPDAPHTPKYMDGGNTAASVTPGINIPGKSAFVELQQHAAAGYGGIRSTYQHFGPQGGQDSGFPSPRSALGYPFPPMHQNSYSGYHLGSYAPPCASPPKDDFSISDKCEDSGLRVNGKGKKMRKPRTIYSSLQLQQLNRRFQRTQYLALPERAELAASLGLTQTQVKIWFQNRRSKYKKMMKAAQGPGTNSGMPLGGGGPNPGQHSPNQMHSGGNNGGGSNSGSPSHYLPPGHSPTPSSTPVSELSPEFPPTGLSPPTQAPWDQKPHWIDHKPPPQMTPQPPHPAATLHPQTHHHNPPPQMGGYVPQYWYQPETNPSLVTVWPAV

B1: probe-dsx (dsx-1) (dsDNA)
DNA 1: AATATTTTATAAATTTAATAAATTGAGTCGTATGCCGTCTTCTGCTTG
DNA 2: CAAGCAGAAGACGGCATACGACTCAATTTATTAAATTTATAAAATATT
binding result (EGFP-Scr-FLAG;T7-Dll-His [1]): binds

B2: probe-Scr-Dll consensus (dsDNA)
DNA 1: TGGGCCTGGTAATTAATTTAATTATCCAGGTCGTATGCCGTCTTCTGCTTG
DNA 2: CAAGCAGAAGACGGCATACGACCTGGATAATTAAATTAATTACCAGGCCCA
binding result (EGFP-Scr-FLAG;T7-Dll-His [2]): binds

B3: probe-dpy (dpy-1) (dsDNA)
DNA 1: ATCGTTAAATTACCGCAATTTGCATGTTCGTATGCCGTCTTCTGCTTG
DNA 2: CAAGCAGAAGACGGCATACGAACATGCAAATTGCGGTAATTTAACGAT
binding result (EGFP-Scr-FLAG;T7-Dll-His [3]): binds
